# Numbering of substitutions follows the chain as printed. Entries after “also recorded” stand apart in the source; their conditions may differ.
# B1: DGT-31: Streptomyces Class IV EPSP synthase, GENBANK YP_004922608.1, SEQ ID NO:145 (protein)
# chain: MTVIDIPGSKSVTARALFLAAAADGTTTLLRPLHSDDTEGFTEGLTRLGYAVVREPDRWHIEGRPSGPAAADAEVHCRDGATTARFLPTLAAAAASGTYRFDASAQMRRRPLAPLTEALRTLGVDLRHDGAEGHHPLTIQASGVKGGGLTLDAGESSQYLTALLMLGPLTAEGLRIEVTELVSAPYVEITLAMMRGFGVEVVREGNTFTVPPGGYRATTYAIEPDASTASYFFAAAALTGREVTVPGLGTGALQGDLRFTEVLRRMDADVRTTSDSTTVRSDGRLAGLTVNMRDISDTMPTLAAIAPYASSPVRIEDVANTRVKECDRLEACAQNLRSMGITVRTGPDWIEIHPGTPRPTEIATHGDHRIVMSFAVAGLRTPGMSYDDPGCVRKTFPRFHEEFAAFVERSSAGE
# modifications: Streptomyces pratensis ATCC 33331
# B2: DGT-32: Streptomyces Class IV EPSP synthase, GENBANK ZP_04696613, SEQ ID NO:68 (protein)
# chain: DRWRVQGRPAGPAATEADVYCRDGATTARFLPTLAAAAASGTYRFDASAQMRRRPLAPLTRALTALGVDLRH
# modifications: Streptomyces roseosporus NRRL 15998
# B3: DGT-33: Streptomyces Class IV EPSP synthase, GENBANK NC_010572, SEQ ID NO:67 (protein)
# chain: B2 chain with Q6E, A10D, T15P, E16D, A35V
# modifications: Streptomyces griseus subsp. griseus NBRC 13350
# B4: DGT-28v1: Class IV EPSP synthase from Streptomyces sviceus ATCC29083, SEQ ID NO:1, native (protein, listed as Streptomyces sviceus)
# chain: MRGMPALSLPGSKSITARALFLAAAADGVTTLVRPLRSDDTEGFAEGLVRLGYRVGRTPDTWQVDGRPQGPAVAEADVYCRDGATTARFLPTLAAAGHGTYRFDASPQMRRRPLLPLSRALRDLGVDLRHEEAEGHHPLTVRAAGVEGGEVTLDAGQSSQYLTALLLLGPLTRQGLRIRVTDLVSAPYVEITLAMMRAFGVEVAREGDVFVVPPGGYRATTYAIEPDASTASYFFAAAALTPGAEVTVPGLGTGALQGDLGFVDVLRRMGAEVSVGADATTVRGTGELRGLTANMRDISDTMPTLAAIAPFASAPVRIEDVANTRVKECDRLEACAENLRRLGVRVATGPDWIEIHPGPATGAQVTSYGDHRIVMSFAVTGLRVPGISFDDPGCVRKTFPGFHEAFAELRRGIGS
# What was measured:
# [1] = system: T1 Arabidopsis; experiment: Glyphosate tolerance of transformed T1 Arabidopsis, postemergence spray, visual % injury; assay type: in vivo, Arabidopsis thaliana
# Source text: Transgenic T1 Arabidopsis plants containing the dgt-28 transgene were sprayed with differing rates of glyphosate. Elevated rates were applied in this study to determine the relative levels of resistance (105, 420, 1,680 or 3,360 g ae/ha). A typical 1× field usage rate of glyphosate is 1120 g ae/ha. The T1 Arabidopsis plants that were used in this study were variable copy number for the dgt-28 transgene. The low copy dgt-28 T1 Arabidopsis plants were self-pollinated and used to produce T2 plants.
# The Arabidopsis T1 transformants were first selected from the background of untransformed seed using a glufosinate selection scheme. Three flats or 30,000 seed were analyzed for each T1 construct. The T1 plants selected above were molecularly characterized and the high copy number plants were subsequently transplanted to individual pots and sprayed with various rates of commercial glyphosate as previously described. The response of these plants is presented in terms of % visual injury 2 weeks after treatment (WAT). […] An arithmetic mean and standard deviation is presented for each construct used for Arabidopsis transformation. The range in individual response is also indicated in the last column for each rate and transformation. Wild-type, non-transformed Arabidopsis (c.v. Columbia) served as a glyphosate sensitive control.
# T1 plants were sampled and copy number analysis for the dgt-31, dgt-32, and dgt-33 v1 gene were completed. T1 plants were then assigned to various rates of glyphosate so that a range of copies were among each rate. For Arabidopsis, 26.25 g ae/ha glyphosate is an effective dose to distinguish sensitive plants from ones with meaningful levels of resistance. Elevated rates were applied to determine relative levels of resistance (105, 420, 1680, or 3360 g ae/ha).
# All glyphosate herbicide applications were made by track sprayer in a 187 L/ha spray volume. Glyphosate used was of the commercial Durango dimethylamine salt formulation (480 g ae/L, Dow AgroSciences, LLC). […]
# [2] = system: EPSP synthase (DGT enzymes); experiment: In vitro kinetic characterization of plant and bacterial DGT enzymes (Pi production, malachite green); assay type: biochemical; details: for Km: read-out: KM^PEP, Km for phosphoenolpyruvate; for decrease in catalytic efficiency: relative to DGT-28 v1
# Experimental: Recombinant DGT proteins were overexpressed in Rosetta2™ (DE3) cells (Novagen™, Madison, Wis.) from the constructs described above. A single colony was used to inoculate 50 mL starter cultures of LB containing chloramphenicol (25 μg/mL) and kanamycin (50 μg/mL) which were cultivated overnight at 37° C. The overnight cultures were used to inoculate 1 L of LB containing chloramphenicol (25 μg/mL) and kanamycin (50 μg/mL). The cultures were grown at 37° C. to an O.D.600=0.6 then placed in an ice water bath for 10 minutes. Expression of the target proteins was achieved by addition of IPTG to a final concentration of 500 μM.
# DGT enzymes were purified to homogeneity in one step via immobilized metal affinity chromatography (IMAC) using a 5 mL HisTrap FF crude column. The column was equilibrated in Buffer A and the sample was loaded in the same buffer. The column was then washed with 10 column volumes of Buffer A followed by elution in a 0-100% Buffer B (50 mM HEPES pH 7.5, 200 mM KCl, 2 mM DTT, 1 mM EDTA, 500 mM imidazole, and 5% glycerol) linear gradient over 25 column volumes. Fractions containing target protein, as judged by SDS-PAGE analysis, were concentrated to 2.5 mL using a Millipore ultracentrifugation device equipped with a 10 kDa molecular weight cut-off (MWCO). The purified DGT enzymes were buffer exchanged using PD-10 columns (GE Healthcare) into 50 mM HEPES pH 7.5, 150 mM KCl, 2 mM DTT, and 5% glycerol and subsequently concentrated ˜1 mL. Samples were typically diluted 1:50 and the UV-visible spectrum was recorded from 240-700 nm on a Cary50™ Bio UV-visible spectrophotometer. A theoretical extinction coefficient was then used to calculate the protein concentration based on the absorbance at 280 nm (ExPASy, Geneva, Switzerland).
# Frozen pellets were resuspended in 20-30 mL buffer A (50 mM HEPES pH 7.5, 100 mM KCl, 1 mM EDTA, 5% glycerol, and 1 mM DTT) and 1 tablet of protease inhibitor (Roche Complete). Once the pellet was completely resolubilized 1 mg/mL of lysozyme was added and the sample was mixed at 4° C. for 15-20 minutes. Following the incubation with the lysozyme the sample was transferred to a 50 mL centrifuge tube and placed on ice. The sample was then sonicated for 1 minute intervals followed by 4 minutes of cooling. This step was repeated two more times for a total of three sonication cycles. Cell debris was removed by centrifugation at 16,500 rpm for 45 minutes and the supernatant was loaded into a 50 mL injection loop. The crude lysate was applied to an amylose column, washed for 7 column volumes with buffer A, and eluted in 100% buffer B (Buffer A and 10 mM maltose). Target protein was pooled and concentrated to 2.5 mL using a 30 kDa MWCO centricon. The purified protein was buffer exchanged into 50 mM HEPES pH 7.5, 100 mM KCl, and 5% glycerol using a PD-10 gel filtration column. Protein concentrations were determined via Bradford assay using BSA as a standard. The pure protein was frozen in liquid nitrogen and stored at −80° C.
# The enzyme activities of wild-type (WT) and mutant DGTs were measured by inorganic phosphate (Pi) production in a modified procedure described by Lanzetta et al. (1979) Anal. Bioch. 100:95-7. Assays were performed in 96-well plate format in a total of 50 μL on a Spectra-Max 190 plate reader (Molecular Devices, Sunnyvale, Calif.). Typical assays contained 50 mM HEPES pH 7.5, 150 mM KCl, 2 mM DTT, and 1 mM S3P. […] Glyphosate was obtained from Sigma as the free acid and was resuspended in ddH2O. Glyphosate was solubilized by addition of KOH until the mixture was at a neutral pH. Assays were initiated by addition of the DGT enzyme at concentrations that varied between 0.01-1 μM. Reactions were terminated by the addition of 235 μL of a 3:1 mixture of malachite green: ammonium molybdate solution. After complete color development (˜1 minute), the absorbance change at 660 nm was recorded and the amount of Pi formed was calculated from a standard curve. […]
Molecule,tolerance to glyphosate [1],Km [2],decrease in catalytic efficiency [2],tolerant to glyphosate at concentrations [2]
B1,slight herbicide tolerance,–,–,–
B2,significant tolerance; also recorded: robust tolerance,140 µM,100 fold,–
B3,significant tolerance; also recorded: robust tolerance,114 µM,100 fold,–
B4,–,91.6 µM,–,> 80 mM
